System: MS2 coat protein
Assay: apparent KD of MS2 coat protein; designed switch direction (-1 OFF switch, 1 ON switch): 1; higher = weaker reporter binding
Procedure, shortened: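 SNAP-549-labelled MS2 coat protein was titrated, doubling from 0.7 or 1.5 nM to 3 µM, over designed RNA switches transcribed on Illumina chips by stalled E. coli RNA polymerase. Runs were done without input, with 200 uM small-molecule ligand, or with an oligonucleotide input. Apparent KD is the per-design median over clusters of curve-fitted normalised fluorescence.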

[1] = Eterna round: R95, input ligand: FMN 200 uM
[2] = Eterna round: R95, input ligand: microRNA oligo, concentration not stated
[3] = Eterna round: R95, input ligand: none
[4] = input ligand: microRNA oligo, concentration not stated

AAAGCCCGUGCUAAGGAUAUGCGUACUCCUACAUGAGGAUCACCCAUGUCCCGCCGAAAAGGAAGGCAGAAGGUAGCACGGGCAA [Letiso] (puzzle: Same State 2)
apparent KD of MS2 coat protein [1]: 48.3 nM
apparent KD of MS2 coat protein [2]: 114 nM
apparent KD of MS2 coat protein [3]: 126 nM

ACGUGAGGCGCAGGAUAUACAUGAGGAUCACCCGUAGAAGGGCGCACCCAUAACAUGAGGAUCACCCAUGUUGUCCAUGUCCAU [Same State NG 1 S5] (Eterna round: R96, puzzle: Same State NG 1)
apparent KD of MS2 coat protein (input ligand: FMN 200 uM): 226 nM
apparent KD of MS2 coat protein [4]: 158 nM
apparent KD of MS2 coat protein (input ligand: none): 241 nM

UCUUGGUUUUUGCUCGUUUUUUGUGUUGAACAUGAGGAUCACCCAUGUAUUGUACGAUCCGGUUUAGUGAUGGUCCG [JMF 63] (puzzle: Sensor for hsa-mir-208a)
apparent KD of MS2 coat protein [1]: 40.8 nM
apparent KD of MS2 coat protein [2]: 27.7 nM
apparent KD of MS2 coat protein [3]: 42.1 nM

GGCCUGGGUCAAGGAUAUGCUACCGUUUCGGUAGCAGAAGGUGAUCACAUGAGGAUCACCCAUGUUUACGCGAAGACGCGCGCC (Eterna round: R96, puzzle: Same State NG 1)
apparent KD of MS2 coat protein (input ligand: FMN 200 uM): 526 nM
apparent KD of MS2 coat protein [4]: 59.3 nM
apparent KD of MS2 coat protein (input ligand: none): 405 nM

AGUCCAGCCUGAGCUGGACAAAAGCAUGUACAUGAGGAUCACCCAUGUCAUGUACAAGCUUUUUGCUCGUCUUAAUA [Mat - hsa-mir-208a - Mod of JL - D44] (puzzle: Sensor for hsa-mir-208a)
apparent KD of MS2 coat protein [1]: 544 nM
apparent KD of MS2 coat protein [2]: 15.3 nM
apparent KD of MS2 coat protein [3]: 634 nM

UAUGAAUUACAAGGAUAUUAAUAACAUGAGGAUCACCCAUGUGGCUGUGAGAGUUAGAUAAGCUAUAAGAAGGUGUGUGUGUUU [JR_SSNG2_Sub093] (Eterna round: R96, puzzle: Same State NG 2)
apparent KD of MS2 coat protein (input ligand: FMN 200 uM): 93.1 nM
apparent KD of MS2 coat protein [4]: 196 nM
apparent KD of MS2 coat protein (input ligand: none): 267 nM

CGUCCCUCCACAGGAUAUCGACCAUUAAAACGGCGAGAAGGGUGGCCACAUGAGGAUCACCCAUGUGGAAUUGGACAAGCUACC [Veonso] (Eterna round: R96, puzzle: Same State NG 1)
apparent KD of MS2 coat protein (input ligand: FMN 200 uM): 127 nM
apparent KD of MS2 coat protein [4]: 23.9 nM
apparent KD of MS2 coat protein (input ligand: none): 127 nM

UCUUGGUUUUUGCUCGUUUUUUGUGUUGAACAUGAGGAUCACCCAUGUAUUGUACGGUCCAAUUUAAUAAUAGUCCA [JMF 75] (puzzle: Sensor for hsa-mir-208a)
apparent KD of MS2 coat protein [1]: 62.3 nM
apparent KD of MS2 coat protein [2]: 52.8 nM
apparent KD of MS2 coat protein [3]: 75.5 nM

UUGCUCGUGUGAGGAUAUGCCGCCGUUUCGGCUGCAGAAGGUACUAUAAUACAUGAGGAUCACCCAUGUCUCUGUUGUUUCGUG [salish99_SSNG1_r04_932] (Eterna round: R96, puzzle: Same State NG 1)
apparent KD of MS2 coat protein [4]: 23.7 nM

AAGUAACAUGAGGAUCACCCAUGUGAGGUGAGCGUAGGAUAUCGAGGAGGAAGGGUGGAGCGAGAAGGACGAGAGG [JR_SS1_Sub099] (puzzle: Same State 1)
apparent KD of MS2 coat protein [1]: 375 nM
apparent KD of MS2 coat protein [2]: 189 nM
apparent KD of MS2 coat protein [3]: 471 nM

GCUCGGCUGAUGGCCUACAUGAGGAUCACCCAUGUGAGUGGGCAGGAUAUCUAGAUUCAGGAUGUAGAGAAGGGCCUGCCGAGC [SameState NG3 #39] (Eterna round: R96, puzzle: Same State NG 3)
apparent KD of MS2 coat protein (input ligand: FMN 200 uM): 1500 nM
apparent KD of MS2 coat protein [4]: 331 nM
apparent KD of MS2 coat protein (input ligand: none): 1190 nM

— the supplement of paper PMC9170038
